Consider three molecules from patent publication US20190375820A1 (ACCELERON PHARMA, published 2019).

The target of experiment [1] is T1, activin AC (UniProt P08476 311-426; P55103 237-352).
T1 sequence (looked up) 1: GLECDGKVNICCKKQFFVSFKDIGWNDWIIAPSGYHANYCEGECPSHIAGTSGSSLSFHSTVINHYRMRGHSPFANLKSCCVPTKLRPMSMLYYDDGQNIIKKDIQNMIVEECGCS
T1 sequence (looked up) 2: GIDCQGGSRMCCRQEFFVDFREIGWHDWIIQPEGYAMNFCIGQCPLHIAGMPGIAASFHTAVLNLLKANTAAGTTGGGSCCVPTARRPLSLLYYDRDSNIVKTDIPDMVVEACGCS
Description: SPR (Biacore); receptor-Fc captured via anti-Fc antibody, ligand injected. The protocol:
(§1) Ligands were injected and allowed to flow over the captured receptor protein.

The target of experiment [2] is T2, activin C (UniProt P55103 237-352).
T2 sequence (looked up): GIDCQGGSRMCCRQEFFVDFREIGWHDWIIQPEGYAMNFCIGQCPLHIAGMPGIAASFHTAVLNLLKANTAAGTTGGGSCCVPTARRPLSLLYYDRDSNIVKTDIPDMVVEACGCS
The experiment is described as above. As for the experimental part:
as §1

B1: ActRIIB-Fc:ALK7-Fc heterodimer (Fc fusion)
chain 1: GRGEAETRECIYYNANWELERTNQSGLERCEGEQDKRLHCYASWRNSSGTIELVKKGCWLDDFNCYDRQECVATEENPQVYFCCCEGNFCNERFTHLPEAGGPEVTYEPPPTAPTGGGTHTCPPCPAPELLGGPSVFLFPPKPKDTLMISRTPEVTCVVVDVSHEDPEVKFNWYVDGVEVHNAKTKPREEQYNSTYRVVSVLTVLHQDWLNGKEYKCKVSNKALPAPIEKTISKAKGQPREPQVYTLPPSRKEMTKNQVSLTCLVKGFYPSDIAVEWESNGQPENNYKTTPPVLKSDGSFFLYSKLTVDKSRWQQGNVFSCSVMHEALHNHYTQKSLSLSPGK
chain 2: GLKCVCLLCDSSNFTCQTEGACWASVMLTNGKEQVIKSCVSLPELNAQVFCHSSNNVTKTECCFTDFCNNITLHLPTASPNAPKLGPMETGGGTHTCPPCPAPELLGGPSVFLFPPKPKDTLMISRTPEVTCVVVDVSHEDPEVKFNWYVDGVEVHNAKTKPREEQYNSTYRVVSVLTVLHQDWLNGKEYKCKVSNKALPAPIEKTISKAKGQPREPQVYTLPPSREEMTKNQVSLTCLVKGFYPSDIAVEWESNGQPENNYDTTPPVLDSDGSFFLYSDLTVDKSRWQQGNVFSCSVMHEALHNHYTQKSLSLSPG
notes: The receptor parts are the same in both pairs; only the Fc domains differ; also called ALK7-Fc:ActRIIB-Fc heterodimer; ActRIIB-Fc:ALK7-Fc heterodimeric complex
In experiment [1], B1 gave a Kd of 0.22 nM, a dissociation rate constant (koff) of 0.00057 s⁻¹ and an on-rate constant (kon) of 2.6e+06 M⁻¹ s⁻¹. In experiment [2], this molecule showed a Kd of 6.9 nM, a koff of 0.0024 s⁻¹ and an association rate constant (kon) of 350000 M⁻¹ s⁻¹.

B2: ALK7-Fc homodimer (Fc fusion)
chain: LSPGLKCVCLLCDSSNFTCQTEGACWASVMLTNGKEQVIKSCVSLPELNAQVFCHSSNNVTKTECCFTDFCNNITLHLPTASPNAPKLGPME
notes: also called ALK7-Fc homodimeric complex; ALK7 homodimer; not shown: linker and Fc domain
Turning to B2, the binding result in experiment [2] was “no binding”.

B3: ActRIIB-Fc homodimer (Fc fusion)
chain: SGRGEAETRECIYYNANWELERTNQSGLERCEGEQDKRLHCYASWRNSSGTIELVKKGCWLDDFNCYDRQECVATEENPQVYFCCCEGNFCNERFTHLPEAGGPEVTYEPPPTAPTLLT
notes: also called ActRIIB-Fc homodimeric complex; ActRIIB homodimer; not shown: linker and Fc domain
As for B3, in experiment [1], binding was characterised by a dissociation constant (Kd) of 0.16 nM, the koff worked out at 0.0031 s⁻¹ and the kon amounted to 2e+07 M⁻¹ s⁻¹.
